# Target: Mouse Fc (mFc) tagged mink ACE2 (mink (Neovison vison))
# Experiment: SPR
substance,measurement,value
SARS-CoV-2 WT RBD (from UniProt P0DTC2 319-541) (domain or fragment),Kd,8.16 µM
